Experiment: soluble on expression in E. coli; label from the status in PepcDB or PDB records
In the case of “MRTQFINEQTMMIYFENEISESTFKKVQQTIQYIKSKNLSEITNMIPSYRAILIYFDNSGINGTELLENLELDENSNSRKQSHFKQRIIHIPVLYGGDFGPDLSEVANVNKLSQEEVIQIHTQQPYLIYMLGFMPGFPYLGGLDAKLHTPRRSEPRIKINAGSVGIANNQTGLYPMDSPGGWQIIGRTPIKVFDLNRTPMTLYEAGDYIQFYSINYQEFEKISNDINKGKFDIDKWVTYQDEYLEHHHHHH”, the “soluble on expression in E. coli” value is reported as “not soluble”. With “RLADRMSQEGWEDPGSSSAQAAAIEHDTFGRDNDGDVILLFTAKDGIAHSPSFDKIKKYLDSLKTDHSDHVDAVTSYFDKRNAQLISKDGTTAFAAVSLRGDGEQTLKDFRAIESDLHPQFPEVTVQVAGSTAVADALDKGMSGDIKRAE” the “soluble on expression in E. coli” value was “not soluble”. In the case of “MSIEVGNKLKGKVTGIKKFGAFVELPEGKSGLVHISEVADNYVENVEEHLSVGDEVDVKVLSIADDGKISLSIKKAKDRPRRQHTSKPSHQKPVQKAEDFEKKLSNFLKDSEDKLTSIKRQTESRRGGKGSRR”, the “soluble on expression in E. coli” value is reported as “not soluble”. With “MSSSTKTLSQTYGPRPQSFSLDEAGERYYIGSEIGAYLRLHRGTLYKKYPLLWRKVATSDDKDKLKQIAMSNAFLHTNIMLLRAHEVDELLDGSEEKYRAAGAAPSTPRTEGASRTVAKTPATGWAGQQVTSGSHHLESVPCSCPIAHSRGRMKHRELVYSAEDLEMSKRVMKNAEEGEDLVPIRLDMELDGIKLRDTFTFNKNEKMITPEMIAEIMCEDLDLPLAVFQPAITAAINQQLEASTEAPPLDVNICDQRAVLKLNINVGNQSLVDQFEWDMSDPNNSPEEFSRNICKELGLGGEFMSGIAYSIRGQLQWNQRTYAFSESPLATVDCPFRTSSEVESWGPFLETLTDAEIEKKMRDQDRNTRRMRRLVGGGFNY” the “soluble on expression in E. coli” value was “not soluble”. For “MGSDKIHHHHHHMSLPAQLRVLEVVQSLEKGGRTTRFTDTVAGLRAQKIFTVPLCISKPESWVSIPDLEVLHKTAGINWKLVFQIRKKIIKNNINLIHAHCEFSQLYASIAGVTCGIKTVATFHRSDLSKYQPNMVNKLIKLFASHFVAVSHDRLSLLTNNLKLPLNKCHVVHGGSVIEKKPTVTSINKARADLGIPLDQLMLLSIGHLGEIKGHQDTLVALSKFTKTMPALHLYIAGDGAAQEKQKLTELVNKLQINENVTFLGQINNAFSWLEACDIFIQPSVEEAFGLVFVEAGAKAKPVIATTVGGIKEIIVSKETGLLVLPSSPKAVEHALAILINSPPLRQQYGENGYKRITEHFSLTNMVNKYTDIFNQAVN”, the “soluble on expression in E. coli” value was “not soluble”. For “MSLVVEQVKPNTGQEVQQIGQLQATKVKLPSTTKVALTKETQYLRNQVIASPVALFEIPADRGQMTLTITSEISDSVFYPHVMIVDAQGQVVESYEEVTFEYRKPRLHLGNRLVAELDFYPPQGYKSLFVLVYTKQQDLKGVTYVAHPARIDAEARGNYLPEVKDIPVPHTLTGTIELDVSGPSFLSFVRSEDRQTTTSTDAAKTQIQVQPDTQTYYFSSIERAVQANDLPKALSLLDEAKALGIEGAQEVFVKAVNARKEGHHHHHH”, the “soluble on expression in E. coli” value was “soluble”. For “MHPKRTPGTCFPGRGRPAPPRISVTVPEEVSQQEDLLVARSSELGGNSNTAVALTFNHALTAVRFVCGNDMREGTVKQVRLKNVYSRGTYNMGTQTWSGLDTPASFSQALDKVTTGTADEALTSEAQTFMMLPQRFPEGAQIEVLFTDDTHTGHTLIADIKGSEWPMGKTVTYKISSSSLNWTYTLDVTALADFTYTGGTQQYCVTSYRQNAQGEKEAAEWTAQYAEDGTTWTDTKPVWLTAFTASGTGGEFAQPCDATVEAQTGISNDLHENALKAATAKGSETTPYNLSNNTGGNTVENTANCYVVNAPGYYSLPLVYGNAIKNSATNASAYTSTVTGTNILNPFINHAGNGITDPYISGNGCTPAKAELVWQDAMNLVTDIKYNADSNGGNISFKVDRSSIRQGNAVIAIKDVSDAILWSWHVWVTDEDINNVIEITNHQNVKYNFMPVNLGQCDGNTITYEERSCKVKFIAGDQSKEITIKQLANVIATGSNAPFYQWGRKDPLYPSNGMGNTTKIWYDKEGIPSTANPMKGTFSAGNDCIKNCILNPNLMHNRYNGDYTYYNLWSADNKTTSANDNPVNKTIYDPCPVGFKLPASNAFTGFTTTGESVSSSTQVNGTWSSSEKGWYFYTNSEKTQSIFFPALGYRSYSTMRPGSIGTQGCFWSAHPVAKGNNYYLRTSSVDVQPTYMVDRGFGYALRPCQD”, the “soluble on expression in E. coli” value was “not soluble”. In the case of “GPGSMSAEAVADLERRAAAAETAIGELSLRLQTMGSSVGAGIEPRLRELLKLMHEDRAEFEAVRAQRDELKEENERLKIQVAKHEYRIKHLLRTIEEISPEENS”, the “soluble on expression in E. coli” value is reported as “soluble”. With “MGSDKIHHHHHHSDSFTYPSAYGWWSVDNGYDVNNVNSRMVSGDFNGDGKADVATFYDYGNGASRIHVFTSNGSSFDYASAYGWWNTPSGYDPKRITAVVAGDFNGDHKDDIAVIYNYGNSETRIHVFISTGSSFSYTDCNGWWNATGYDAGRITGAVAGDFNGDGKSDIATMYDYGGGETRIHVFTSTGSSFTYTGANGWWNSTGYDSNRVKGRVVAGDFNGDGKTDIAAMYDYGGSESRIHVFLSTGDSFKYTGANGWWSTTGYDANKVTGRLVAGDFNGDGKADIAAMYDYGNAETRIHVLTSNGDSFTYTGANGWWNTTGYDANRVTGRVVAGDFNGDHKADIAAFYDYGSSASRIHVFTSNADSPESSKGAELVAYAESFLGVPYVWGGADPSGFDCSGLVQYCYEHFGVDLPRTTYDQVNCGTTVTDDLQPGDLLFFGSATSPTHVAIYAGNSKMVEAPHTGANVRLVDIRSYFIAKRIFN” the “soluble on expression in E. coli” value was “not soluble”. In the case of “MKVGVVGLQGDVSEHIEATKMAIEKLELPGEVIWLKRPEQLKGVDAVIIPGGESTTISRLMQRTGLFEPIKKMVEDGLPVMGTCAGLIMLAKEVLGATPEQKFLEVLDVKVNRNAYGRQVDSFEAPVKLAFDDEPFIGVFIRAPRIVELLSEKVKPLAWLEDRVVGVEQENIIGLEFHPELTNDTRIHEYFLRKVI”, the “soluble on expression in E. coli” value is reported as “soluble”. For “MTQTYNADAIEVLTGLEPVRRRPGMYTDTTRPNHLGQEVIDNSVDEALAGHAKRVDVILHADQSLEVIDDGRGMPVDIHPEEGVPAVELILCRLHAGGKFSNKNYQFSGGLHGVGISVVNALSKRVEVNVRRDGQVYNIAFENGEKVQDLQVVGTCGKRNTGTSVHFWPDETFFDSPRFSVSRLTHVLKAKAVLCPGVEITFKDEINNTEQRWCYQDGLNDYLAEAVNGLPTLPEKPFIGNFAGDTEAVDWALLWLPEGGELLTESYVNLIPTMQGGTHVNGLRQGLLDAMREFCEYRNILPRGVKLSAEDIWDRCAYVLSVKMQDPQFAGQTKERLSSRQCAAFVSGVVKDAFILWLNQNVQAAELLAEMAISSAQRRMRAAKKVVRKK”, the “soluble on expression in E. coli” value was “soluble”. With “MILFDKNKRILKKYAKMVSKINQIESDLRSKKNSELIRLSMVLKEKVNSFEDADEHLFEAFALVREAARRTLGMRPFDVQVMGGIALHEGKVAEMKTGEGKTLAATMPIYLNALIGKGVHLVTVNDYLARRDALWMGPVYLFLGLRVGVINSLGKSYEVVWKNPDLARKAIEENWSVWPDGFNGEVLKEESMNKEAVEAFQVELKEITRKEAYLCDVTYGTNNEFGFDYLRDNLVLDYNDKVQRGHFYAIVDEADSVLIDEARTPLIISGPSKESPSVYRRFAQIAKKFVKDKDFTVDEKARTIILTEEGVAKAEKIIGVENLYDPGNVSLLYHLINALKALHLFKKDVDYVVMNGEVIIVDEFTGRLLPGRRYSGGLHQAIEAKEGVPIKEESITYATITFQNYFRMYEKLAGMTGTAKTEESEFVQVYGMEVVVIPTHKPMIRKDHDDLVFRTQKEKYEKIVEEIEKRYKKGQPVLVGTTSIEKSELLSSMLKKKGIPHQVLNAKYHEKEAEIVAKAGQKGMVTIATNMAGRGTDIKLGPGVAELGGLCIIGTERHESRRIDNQLRGRAGRQGDPGESIFFLSLEDDLLRIFGSEQIGKVMNILKIEEGQPIQHPMLSKLIENIQKKVEGINFSIRKTLMEMDDVLDKQRRAVYSLRDQILLEKDYDEYLKDIFEDVVSTRVEEFCSGKNWDIESLKNSLSFFPAGLFDLDEKQFSSSEELHDYLFNRLWEEYQRKKQEIGEDYRKVIRFLMLRIIDDHWRRYLEEVEHVKEAVQLRSYGQKDPIVEFKKETYYMFDEMMRRINDTIANYVLRVVKVSEKDEKEAKEELGKIRLVHEEFNLVNRAMRRATEKKKKKDGLHSFGRIRVKR” the “soluble on expression in E. coli” value was “soluble”. With “MGSDKIHHHHHHMSHQSTHPHHTWVQSHHPVHLETKSPPHKEPMFYYFAYGSCMCPVDLKRSLGENTHPYIIGPGVLKGYRLGFYLYLPSRKCGVLDIVKDPKASVKGVLYQLPLRLSEYLDQREGVSQNLYRHESVEIHSHSRVYQDVRTYVVVNKSEEEVAPNDWYFNVVLRGAVTCGLPEEYCWHLFNHMHKLQQRHQEQKFRRSA” the “soluble on expression in E. coli” value was “not soluble”. For “MAHHHHHHMSQLAHNVNLSIFEPISHHRANRIVCTIGPSTQSVEALKGLIRSGMSVARMNFSHGSHEYHQTTINNLRAAATELGAHIGLALDTKGPEIRTGLFKDGGIALAPGDTVLVTSDPAFEKIGTKEKFYIEYPRLSITVRPGGFIYIDDGVLSLKVLSKEDEYTLKCYVNNAHFLTDRKGCNLPGCEVDLPAVSEKDREDLKFGVEQGIDMVFASFIRTAEQVQEVREALGEKGKDILIISKIENHQGVQNIDGIIEASDGIMVARGDLGVEIPAEKVVVAQMILISKCNVAGKPVICATQMLESMTTNPRPTRAEVSDVANAVFNGADCVMLSGETAKGKYPNEVVQYMARICLEAQSATNQAVMFNSIKKMQKLPMSPEEAVCSSAVNSVYEVRAKALLVLSNSGRSARLASKYRPDCPIICATTRMRTCRQLTITRSVDAVFYDAERYGEDENKEKRVQLGVDCAKKKGYVVPGDLMVVVHADHKVKGYPNQTRIIYVS”, the “soluble on expression in E. coli” value was “not soluble”. With “MGSDKIHHHHHHMFKGIIAALWDMDSIGEIEPDVVFLLKSDILNLKFHLKILKDRGKTVFVDMDFVNGLGEGEEAILFVKKAGADGIITIKPKNYVVAKKNGIPAVLRFFALDSKAVERGIEQIETLGVDVVEVLPGAVAPKVARKIPGRTVIAAGLVETEEEAREILKHVSAISTSSRILWKMKFLP” the “soluble on expression in E. coli” value was “soluble”. For “MSLQTPDTATTAPYLLAGAPTFDLSISQFREDFNSQNPSLPLNEFRAIDSSPDKANLTRAASKINENLYASTALERGTLKIKSIQMTWLPIQGPEQKAAKAKAQEYMAAVIRTLTPLMTKTQSQKKLQSLLTAGKNKRYYTETEGALRYVVADNGEKGLTFAVEPIKLALSESLEGLNKEGHHHHHH”, the “soluble on expression in E. coli” value was “soluble”. With “MGSDKIHHHHHHLRDATSQIGQTVVGEAVRLVSFRPLGNLANHTLLMAAIVMMQSKHPDQFEKSNEILDTLMEREMHHPVVLTWAGIWHVMRVQKGLSGDRRKSTLMAENLANAALAQDPAFSLAHTLKGMIASYLTFDFDNAQYSYDKALQDNPNEALALLLKGATRAMQNRPDEGVVLTEAARKLTPLGPQRYYFDSLAAAVSLAARDYNRAIELADRSLEENDSYPSTLRTKAIALQMSGRSDEARHVVESLMKVTPDFSLSRYMQEHAAGFTPSGPDWASALREAGVPE” the “soluble on expression in E. coli” value was “not soluble”. In the case of “MGSDKIHHHHHHMAQQDRLQQMREWIKTTPEISLDQLMGEYRISRDTARRDLIQLEREGKIIRVKNGLIRVGTNTTIQYDRRTEQPEKNRIAKHAVRYVQPDQTIILDAASTVARMTVHLPAQPIQIITNALAVVEQLEARPEIDLYVTGGKWDRHARSLVGIKTADDILNYQVDRVFLGACGLTEQGVFAENLEEAIVKKAMIRSSAEVIVLADHTKFEKRFLHKVCDLDQIDILITDERPTEQWQKWLQEADILLETAEEE”, the “soluble on expression in E. coli” value is reported as “not soluble”.
